Data on 8 molecules can be found in patent US20150267177A1.

Like-named read-outs stand apart in the source and are kept apart here.

In data set [1] the test system is Act-PB1 (MDH activator protein Act of Bacillus methanolicus PB1).
Data set [2] deals with T1, Act-MGA3 (MDH activator protein Act of Bacillus methanolicus MGA3).
T1 sequence (Q8KP10 2-185, looked up): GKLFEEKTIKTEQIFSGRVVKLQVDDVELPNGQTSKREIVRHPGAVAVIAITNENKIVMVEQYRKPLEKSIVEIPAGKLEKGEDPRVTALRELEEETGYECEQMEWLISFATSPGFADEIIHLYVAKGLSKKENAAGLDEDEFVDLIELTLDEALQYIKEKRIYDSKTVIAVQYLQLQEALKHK

Data set [3] addresses T2, Mdh-MGA3 (methanol dehydrogenase Mdh of Bacillus methanolicus MGA3, encoded on plasmid pBM19) (Bacillus methanolicus MGA3) (UniProt P31005).
T2 sequence: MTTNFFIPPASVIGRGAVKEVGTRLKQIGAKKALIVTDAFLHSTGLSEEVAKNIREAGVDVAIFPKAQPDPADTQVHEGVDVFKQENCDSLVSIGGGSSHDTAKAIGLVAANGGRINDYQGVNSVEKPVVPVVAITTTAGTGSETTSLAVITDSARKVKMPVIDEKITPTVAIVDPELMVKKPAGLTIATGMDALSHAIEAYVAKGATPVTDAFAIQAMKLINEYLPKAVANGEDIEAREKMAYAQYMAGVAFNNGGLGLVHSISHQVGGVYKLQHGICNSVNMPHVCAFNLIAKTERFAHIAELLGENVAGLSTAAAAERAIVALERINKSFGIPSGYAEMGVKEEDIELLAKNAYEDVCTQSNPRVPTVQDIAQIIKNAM
Kind of data set: cell-based or functional assay.

Data set [4] concerns the target T3, Mdh3-MGA3 (methanol dehydrogenase Mdh3 of Bacillus methanolicus MGA3) (Bacillus methanolicus MGA3).
T3 sequence: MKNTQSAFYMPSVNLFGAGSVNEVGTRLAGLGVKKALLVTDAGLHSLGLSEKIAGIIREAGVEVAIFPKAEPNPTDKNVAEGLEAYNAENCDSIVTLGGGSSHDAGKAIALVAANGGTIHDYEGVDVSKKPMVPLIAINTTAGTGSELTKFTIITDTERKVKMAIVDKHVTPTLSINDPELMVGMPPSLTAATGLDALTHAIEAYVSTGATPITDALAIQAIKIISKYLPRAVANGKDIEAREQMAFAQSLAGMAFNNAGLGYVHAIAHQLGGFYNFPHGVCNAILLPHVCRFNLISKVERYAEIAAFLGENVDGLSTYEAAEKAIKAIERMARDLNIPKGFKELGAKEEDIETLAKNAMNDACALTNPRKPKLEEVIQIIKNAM
The experiment in a line: cell-based or functional assay.

For another data set, the target named is the MGA3 MDHs. The experiment in a line: cell-based or functional assay.
Data set [5] deals with T4, Mdh2-MGA3 (methanol dehydrogenase Mdh2 of Bacillus methanolicus MGA3) (Bacillus methanolicus MGA3).
T4 sequence: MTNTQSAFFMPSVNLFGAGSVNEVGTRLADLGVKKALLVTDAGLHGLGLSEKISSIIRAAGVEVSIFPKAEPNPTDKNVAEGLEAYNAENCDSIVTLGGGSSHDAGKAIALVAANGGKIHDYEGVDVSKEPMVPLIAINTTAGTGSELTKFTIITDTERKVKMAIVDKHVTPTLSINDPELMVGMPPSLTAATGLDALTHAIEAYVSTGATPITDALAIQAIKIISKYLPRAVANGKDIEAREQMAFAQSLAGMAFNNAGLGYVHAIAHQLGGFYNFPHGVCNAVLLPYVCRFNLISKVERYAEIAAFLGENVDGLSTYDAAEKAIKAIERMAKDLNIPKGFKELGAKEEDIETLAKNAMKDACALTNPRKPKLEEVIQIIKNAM
The experiment in a line: cell-based or functional assay.

The target of data set [6] is T5, Mdh-MGA3 (methanol dehydrogenase Mdh of Bacillus methanolicus MGA3, encoded on plasmid pBM19).
T5 chain: T2 sequence

Data set [7] concerns the target T6, Act-PB1 (MDH activator protein Act of Bacillus methanolicus PB1).
T6 sequence (Q8KP10 2-185, looked up): T1 sequence (Q8KP10 2-185, looked up)
This is another data set of the same source.

Take “Mdh1-PB1 (methanol dehydrogenase Mdh1 of Bacillus methanolicus PB1)”: in data set [1], the Km for methanol in the presence of Act (20 ug MDH + 20 ug Act) came out at 2.3 mM; the Vmax with methanol in the presence of Act (20 ug MDH + 20 ug Act) came to 0.056 U/mg; the “Vmax with methanol, with Act against single enzyme assay” value (“Vmax with methanol, with Act” for short) is on record as “The Vmax values were increased 4-6-fold compared to in the single enzyme assays”; the “fold reduction of Km,MeOH by Act” value was “substantially reduced (16-fold and 70-fold, respectively) in the presence of Act”.

“Mdh-PB1 (methanol dehydrogenase Mdh of Bacillus methanolicus PB1, encoded on plasmid pBM20)”: in data set [1], the Km for methanol in the presence of Act (20 ug MDH + 20 ug Act) is 13.9 mM; the Vmax with methanol in the presence of Act (20 ug MDH + 20 ug Act) was 0.2 U/mg; the “Vmax with methanol, with Act” value is “The Vmax values were increased 4-6-fold compared to in the single enzyme assays”; the “fold reduction of Km,MeOH by Act” value was “substantially reduced (16-fold and 70-fold, respectively) in the presence of Act”.

B1: Mdh2-MGA3 (methanol dehydrogenase Mdh2 of Bacillus methanolicus MGA3) (protein)
chain: T4 sequence
In the case of B1, in data set [2], the Km for methanol in the presence of Act (20 ug MDH + 20 ug Act) is 200 mM; the Vmax with methanol in the presence of Act (20 ug MDH + 20 ug Act) turned out to be 0.15 U/mg; the “Vmax with methanol, with Act” value is listed as “The Vmax values were increased 4-6-fold compared to in the single enzyme assays”; the “change of Km,MeOH by Act” value is “remained essentially the same as when tested without Act”. Further, the “methanol dehydrogenase activity in lysates of recombinant B. subtilis 168, methanol or ethanol as substrate, 50 C” value (from here on “methanol dehydrogenase activity”) in data set [2] is given as “In all cases, methanol dehydrogenase activities were significantly stimulated by Act”.

B2: Mdh3-MGA3 (methanol dehydrogenase Mdh3 of Bacillus methanolicus MGA3) (protein)
chain: T3 sequence
In the case of B2, in data set [2], the Km for methanol in the presence of Act (20 ug MDH + 20 ug Act) was found to be 150 mM; the Vmax with methanol in the presence of Act (20 ug MDH + 20 ug Act) came out at 0.45 U/mg; the “Vmax with methanol, with Act” value was “The Vmax values were increased 4-6-fold compared to in the single enzyme assays”; the “change of Km,MeOH by Act” value was “remained essentially the same as when tested without Act”. The “methanol dehydrogenase activity” value in data set [2] is on record as “In all cases, methanol dehydrogenase activities were significantly stimulated by Act”.

B3: Act-MGA3 (MDH activator protein Act of Bacillus methanolicus MGA3) (protein, UniProt Q8KP10 2-185, looked up)
Methanol dehydrogenase activator: T1 sequence (Q8KP10 2-185, looked up)
In data set [3], B3 yielded a Mdh activity in vitro, crude extract of E. coli co-expressing Act, 37 C, +Act of 464 mU/mg; a Mdh activity in vitro, crude extract of E. coli co-expressing Act, 45 C, +Act of 1260 mU/mg; a Mdh activity in vivo, E. coli cells co-expressing Act, 37 C, +Act of 1 mU/mg; a Mdh activity in vivo, E. coli cells co-expressing Act, 42 C, +Act of 1 mU/mg. In data set [4], this molecule yielded a Mdh activity in vitro, crude extract of E. coli co-expressing Act, 37 C, +Act of 327 mU/mg; a Mdh activity in vitro, crude extract of E. coli co-expressing Act, 45 C, +Act of 867 mU/mg; a Mdh activity in vivo, E. coli cells co-expressing Act, 37 C, +Act of 11 mU/mg; a Mdh activity in vivo, E. coli cells co-expressing Act, 42 C, +Act of 24 mU/mg. Moreover, in the data set with the MGA3 MDHs, the fold increase of catalytic activity, ethanol as substrate lay in the range of 6 to 8 fold and the fold induction of MDH activity, methanol as substrate, MDH:Act 1:1 lay in the range of 5 to 7 fold. For the same molecule, in data set [5], the Mdh activity in vitro, crude extract of E. coli co-expressing Act, 37 C, +Act was 672 mU/mg; the Mdh activity in vitro, crude extract of E. coli co-expressing Act, 45 C, +Act worked out at 1910 mU/mg; the Mdh activity in vivo, E. coli cells co-expressing Act, 37 C, +Act was found to be 9 mU/mg; the Mdh activity in vivo, E. coli cells co-expressing Act, 42 C, +Act was 11.3 mU/mg.

B4: B. subtilis NudF protein (nudF gene product, ADP-ribose pyrophosphatase subfamily of Nudix hydrolases) (protein)
chain: MKSLEEKTIAKEQIFSGKVIDLYVEDVELPNGKASKREIVKHPGAVAVLAVTDEGKIIMVKQFRKPLERTIVEIPAGKLEKGEEPEYTALRELEEETGYTAKKLTKITAFYTSPGFADEIVHVFLAEELSVLEEKRELDEDEFVEVMEVTLEDALKLVESREVYDAKTAYAIQYLQLKEALQAQK
For the molecule B4, the “fold stimulation of Mdh activity, ethanol as substrate” value in data set [6] was “Mdh activity was stimulated equally well (about 8-fold) with NudF as with Act”.

B5: Mdh2-PB1 (methanol dehydrogenase Mdh2 of Bacillus methanolicus PB1) (protein)
chain: MTNTQSIFYIPSVNLFGPGSVNEVGTRLAGLGVKKALLVTDAGLHGLGLSEKIASIIREAGVEVLIFPKAEPNPTDKNVAEGLEVYNAENCDSIVTLGGGSSHDAGKGIALVAANGGTIYDYEGVDKSKKPMVPLIAINTTAGTGSELTRFTIITDTERKVKMAIVDKHVTPTLSINDPELMVGMPPSLTAATGLDALTHAIEAYVSTAATPITDALAIQAIKIISKYLPRAFANGKDMEAREQMAFAQSLAGMAFNNASLGYVHAIAHQFGGFYNFPHGVCNAILLPHVCRFNLISKVERFAEIAALLGENVAGLSTREAAEKGIKAIERMAKDLNIPRGFKELGAKEEDIVTLAENAMKDATALTNPRKPKLEEVIQIIKNAM
As to B5, in data set [7], the Km for methanol in the presence of Act (20 ug MDH + 20 ug Act) came out at 36 mM; the Vmax with methanol in the presence of Act (20 ug MDH + 20 ug Act) came out at 0.24 U/mg; the “Vmax with methanol, with Act” value is recorded as “The Vmax values were increased 4-6-fold compared to in the single enzyme assays”; the “fold reduction of Km,MeOH by Act” value is on record as “moderately (4-fold) reduced by Act for Mdh2-PB1”.

B6: Mdh-MGA3 (methanol dehydrogenase Mdh of Bacillus methanolicus MGA3, encoded on plasmid pBM19) (protein)
chain: T2 sequence
Take B6: in data set [2], the Km for methanol in the presence of Act (20 ug MDH + 20 ug Act) worked out at 12 mM; the “MDH catalytic activity with methanol as substrate, at relative concentrations of the proteins of 1:2-20:1” value is “Full activation was reached at a relative concentration of between 1:1 and 5:1 and no inhibition due to relative high activator concentrations was observed”; the Vmax with methanol in the presence of Act (20 ug MDH + 20 ug Act) came out at 0.5 U/mg; the “Vmax with methanol, with Act” value is on record as “The Vmax values were increased 4-6-fold compared to in the single enzyme assays”. Besides, in data set [2], the “fold reduction of Km,MeOH by Act” value was “dramatically reduced (17-fold) to 12 mM for Mdh-MGA3 when Act was added to the reaction”; the “fold stimulation of Mdh activity, ethanol as substrate” value is listed as “Mdh activity was stimulated equally well (about 8-fold) with NudF as with Act”; the “methanol dehydrogenase activity” value is reported as “In all cases, methanol dehydrogenase activities were significantly stimulated by Act”.
